Laboratory results from patent US20180037631A1 (Bristol-Myers Squibb, published 2018).
Positions count from the first letter of the chain named. Values joined by “and” are separate entries in the source; they are usually repeats but may differ in a detail not shown here. Equal values may be shown once.

B1: I1-GS10-E5 pegylated without the 6HIS tag (designed binder)
chain: MGVSDVPRDLEVVAATPTSLLISWSARLKVARYYRITYGETGGNSPVQEFTVPKNVYTATISGLKPGVDYTITVYAVTRFRDYQPISINYRTEIDKGSGSGSGSGSGSGSGSGSGSVSDVPRDLEVVAATPTSLLISWWAPVDRYQYYRITYGETGGNSPVQEFTVPRDVYTATISGLKPGVDYTITVYAVTDYKPHADGPHTYHESPISINYRTEIDKPCQ
modifications: PEG on the Cys of the C-terminal Cys tail
notes: Whether the D-to-E change in the tail of the first monomer applies to this construct is not clear; also called I1-GS10-E5 pegylated(1)
B2: E90-GS10-I1 pegylated (designed binder)
E/I tandem 10Fn3 chain: MGVSDVPRDLEVVAATPTSLLISWYWEGLPYQYYRITYGETGGNSPVQEFTVPRDVNTATISGLKPGVDYTITVYAVTDWYNPDTHEYIYHTIPISINYRTEIDKGSGSGSGSGSGSGSGSGSGSVSDVPRDLEVVAATPTSLLISWSARLKVARYYRITYGETGGNSPVQEFTVPKNVYTATISGLKPGVDYTITVYAVTRFRDYQPISINYRTEIDKPCQHHHHHH
modifications: Cys of the C-terminal Cys tail conjugated to 40 kDa branched PEG
B3: E96-GS10-I1 pegylated (designed binder)
E/I tandem 10Fn3 chain: MGVSDVPRDLEVVAATPTSLLISWASNRGTYQYYRITYGETGGNSPVQEFTVPGGVSTATISGLKPGVDYTITVYAVTDAFNPTTHEYNYFTTPISINYRTEIDKGSGSGSGSGSGSGSGSGSGSVSDVPRDLEVVAATPTSLLISWSARLKVARYYRITYGETGGNSPVQEFTVPKNVYTATISGLKPGVDYTITVYAVTRFRDYQPISINYRTEIDKPCQHHHHHH
modifications: Cys of the C-terminal Cys tail conjugated to 40 kDa branched PEG
B4: E85-GS10-I1 pegylated (designed binder)
E/I tandem 10Fn3 chain: MGVSDVPRDLEVVAATPTSLLISWTQGSTHYQYYRITYGETGGNSPVQEFTVPGMVYTATISGLKPGVDYTITVYAVTDYFDRSTHEYKYRTTPISINYRTEIDKGSGSGSGSGSGSGSGSGSGSVSDVPRDLEVVAATPTSLLISWSARLKVARYYRITYGETGGNSPVQEFTVPKNVYTATISGLKPGVDYTITVYAVTRFRDYQPISINYRTEIDKPCQHHHHHH
modifications: Cys of the C-terminal Cys tail conjugated to 40 kDa branched PEG
B5: E105-GS10-I1 pegylated (designed binder)
E/I tandem 10Fn3 chain: MGVSDVPRDLEVVAATPTSLLISWDAPTSRYQYYRITYGETGGNSPVQEFTVPGGLSTATISGLKPGVDYTITVYAVTDYKPHADGPHTYHESPISINYRTEIDKGSGSGSGSGSGSGSGSGSGSVSDVPRDLEVVAATPTSLLISWSARLKVARYYRITYGETGGNSPVQEFTVPKNVYTATISGLKPGVDYTITVYAVTRFRDYQPISINYRTEIDKPCQHHHHHH
modifications: Cys of the C-terminal Cys tail conjugated to 40 kDa branched PEG
B6: E105-GS10-I1 pegylated (designed binder)
chain: B5 E/I tandem 10Fn3 chain
modifications: chain 1 pos 221: Cys carrying a maleimide-linked 40 kDa branched PEG, written C
notes: lower row of the two named E105-GS10-I1 pegylated
B7: I1-GS10-E112 pegylated (designed binder)
I/E tandem 10Fn3 chain: MGVSDVPRDLEVVAATPTSLLISWSARLKVARYYRITYGETGGNSPVQEFTVPKNVYTATISGLKPGVDYTITVYAVTRFRDYQPISINYRTEIDKGSGSGSGSGSGSGSGSGSGSVSDVPRDLEVVAATPTSLLISWDAGAVTYQYYRITYGETGGNSPVQEFTVPGGVRTATISGLKPGVDYTITVYAVTDYKPHADGPHTYHEYPISINYRTEIDKPCQHHHHHH
modifications: Cys of the C-terminal Cys tail conjugated to 40 kDa branched PEG
B8: E5-GS10-I1 pegylated (designed binder)
E/I tandem 10Fn3 chain: B5 E/I tandem 10Fn3 chain with D25W, T28V, S29D, G54R, G55D, L56V, S57Y
modifications: Cys of the C-terminal Cys tail conjugated to 40 kDa branched PEG
B9: E92 (designed binder)
10Fn3 domain: MGVSDVPRDLEVVAATPTSLLISWQAANHSYQYYRITYGETGGNSPVQEFTVPGGVRTATISGLKPGVDYTITVYAVTDFFNPVTHEYKYRTIPISINYRTEIDKPSQ
B10: E91 (designed binder)
10Fn3 domain: MGVSDVPRDLEVVAATPTSLLISWSAPWRTYQYYRITYGETGGNSPVQEFTVPYDVYTATISGLKPGVDYTITVYAVTDYLNPNTLEYTYQRIPISINYRTEIDKPSQ
B11: E93 (designed binder)
10Fn3 domain: MGVSDVPRDLEVVAATPTSLLISWDSGRGSYQYYRITYGETGGNSPVQEFTVPGGVRTATISGLKPGVDYTITVYAVTDYKPHADGPHTYHEYPISINYRTEIDKPSQ
B12: E97 (designed binder)
10Fn3 domain: B11 10Fn3 domain with D25L, S26P, R28K, G29L, S30R, G54H, G55D, V56L, Y93S
B13: E98 (designed binder)
10Fn3 domain: B11 10Fn3 domain with S26A, G27P, R28T, G29S, S30R, Y80H
B14: E94 (designed binder)
10Fn3 domain: B11 10Fn3 domain with D25N, S26N, R28G, G29R, S30N, G54Y, G55D, R57Y
B15: E95 (designed binder)
10Fn3 domain: MGVSDVPRDLEVVAATPTSLLISWVVPQGMYQYYRITYGETGGNSPVQEFTVPGGVSTATISGLKPGVDYTITVYAVTDYFNPATHEYNYHSIPISINYRTEIDKPSQ
B16: E96 (designed binder)
10Fn3 domain: B15 10Fn3 domain with V25A, V26S, P27N, Q28R, M30T, Y80A, A84T, H91F, S92T, I93T

Molecular target: T1, IGF1R-Fc (extracellular domain of human IGF1R aa 1-932 fused to hinge and constant regions of human IgG1) (human, UniProt P08069 31-932)
T1 construct: range 1-932; made in house by transient transfection, purified on Protein A; also called IGF-IR-Fc; not shown: hinge and constant regions of human IgG1
Assay: SPR Biacore

| Kd | Binder |
| --- | --- |
| 0.23 nM | B1 |

Molecular target: T1, IGF1R-Fc (extracellular domain of human …)
Assay: SPR Biacore, IGF1R-Fc

| Kd | koff | kon | Binder |
| --- | --- | --- | --- |
| 0.22 nM and 0.23 nM | 0.000288 s⁻¹ and 0.000276 s⁻¹ | 1.28e+06 M⁻¹ s⁻¹ and 1.22e+06 M⁻¹ s⁻¹ | B1 |

Molecular target: T2, EGFR on the surface of human tumour cells (A431, H292) (human, UniProt P00533 25-1210)
Assay: cell-based or functional assay

| pEGFR IC50 | pERK IC50 | Binder |
| --- | --- | --- |
| 30 nM | 11 nM | B1 |

Molecular target: T3, IGF-IR on human tumour cells (H292, MCF-7, RH41) (human, UniProt P08069 31-1367)
Assay: cell-based or functional assay

| pIGFR IC50 | Binder |
| --- | --- |
| 1.2 nM | B1 |

Molecular target: T2, EGFR on the surface of human tumour …
Assay: cell-based or functional assay
Remark: another data set of the same source

| IC50, EGF-induced EGFR phosphorylation, A431 cells, In Cell Western | IC50, EGF-induced ERK phosphorylation, A431 cells, In Cell Western | IC50, EGF-stimulated EGFR phosphorylation, H292 cells, ELISA | Binder |
| --- | --- | --- | --- |
| 65 nM | 63 nM | 10 nM | B2 |
| 61 nM | 54 nM | 10 nM | B3 |
| 15 nM | 15 nM | 4 nM | B4 |
| 56 nM | 61 nM | 15 nM | B5 |
| 61 nM | 49 nM | 16 nM | B6 |

Molecular target: T3, IGF-IR on human tumour cells (H292, …)
Assay: cell-based or functional assay
Remark: another data set of the same source

| IC50, IGF1-stimulated IGFR phosphorylation, H292 cells, ELISA | Binder |
| --- | --- |
| 0.3 nM | B7 |
| 0.4 nM | B2 |
| 0.4 nM | B3 |
| 0.3 nM | B4 |
| 0.5 nM | B5 |
| 0.5 nM | B6 |
| 0.4 nM | B8 |

Molecular target: T2, EGFR on the surface of human tumour …
Assay: cell-based or functional assay
Remark: another data set of the same source

| % inhibition of EGFR phosphorylation at 100 nM binder, cell-based assay | Binder |
| --- | --- |
| 88.5% | B9 |
| 84.7% | B10 |
| 76.9% | B11 |
| 89.3% | B12 |
| 75.8% | B13 |
| 78.7% | B14 |
| 98% | B15 |
| 91.7% | B16 |

Molecular target: T1, IGF1R-Fc (extracellular domain of human …)
Assay: SPR Biacore, IGF1R-Fc; against I1-GS10-E5 pegylated

| ΔKd (fold) | Δka (fold) | Δkd (fold) | Binder |
| --- | --- | --- | --- |
| 1.1 fold | 1.2 fold | 0.9 fold | B1 |

Molecular target: T4, Recombinant human EGFR-Fc (aa 1-645 of the extracellular domain of human EGFR fused to human Fc) (human, UniProt P00533 25-645)
T4 construct: range 1-645; bought from R&D Systems; also called EGFR645-Fc; EGFR-Fc (HER-1); not shown: human Fc
Assay: not given

| Kd | Binder |
| --- | --- |
| 13.5 nM | B2 |
| 24.2 nM | B3 |
| 4.76 nM | B4 |
| 9.28 nM | B5 |
| 7.65 nM | B6 |

Molecular target: T1, IGF1R-Fc (extracellular domain of human …)
Assay: not given

| Kd | Binder |
| --- | --- |
| 1.5 nM | B2 |
| 0.96 nM | B3 |
| 0.75 nM | B4 |
| 1.35 nM | B5 |
| 1.19 nM | B6 |
| 1.16 nM | B8 |

Molecular target: T2, EGFR on the surface of human tumour …
Assay: not given

| IC50 | Binder |
| --- | --- |
| 69.1 nM | B2 |
| 43.8 nM | B3 |
| 65.9 nM | B4 |
| 75 nM | B5 |
| 93.8 nM | B6 |
